In publication PMC5146997:

Key:
[1] = target: EphA2-Fc (entire ectodomain of EphA2 fused to the Fc fragment of IgG) (UniProt P29317); test: ELISA
[2] = target: EphA2 at the surface of PC3 cells (endogenous) (human (endogenous in PC3)) (UniProt P29317); test: in-cell binding assay
Sequence of EphA2 at the surface of PC3 cells (endogenous) (human (endogenous in PC3)) (P29317 24-976): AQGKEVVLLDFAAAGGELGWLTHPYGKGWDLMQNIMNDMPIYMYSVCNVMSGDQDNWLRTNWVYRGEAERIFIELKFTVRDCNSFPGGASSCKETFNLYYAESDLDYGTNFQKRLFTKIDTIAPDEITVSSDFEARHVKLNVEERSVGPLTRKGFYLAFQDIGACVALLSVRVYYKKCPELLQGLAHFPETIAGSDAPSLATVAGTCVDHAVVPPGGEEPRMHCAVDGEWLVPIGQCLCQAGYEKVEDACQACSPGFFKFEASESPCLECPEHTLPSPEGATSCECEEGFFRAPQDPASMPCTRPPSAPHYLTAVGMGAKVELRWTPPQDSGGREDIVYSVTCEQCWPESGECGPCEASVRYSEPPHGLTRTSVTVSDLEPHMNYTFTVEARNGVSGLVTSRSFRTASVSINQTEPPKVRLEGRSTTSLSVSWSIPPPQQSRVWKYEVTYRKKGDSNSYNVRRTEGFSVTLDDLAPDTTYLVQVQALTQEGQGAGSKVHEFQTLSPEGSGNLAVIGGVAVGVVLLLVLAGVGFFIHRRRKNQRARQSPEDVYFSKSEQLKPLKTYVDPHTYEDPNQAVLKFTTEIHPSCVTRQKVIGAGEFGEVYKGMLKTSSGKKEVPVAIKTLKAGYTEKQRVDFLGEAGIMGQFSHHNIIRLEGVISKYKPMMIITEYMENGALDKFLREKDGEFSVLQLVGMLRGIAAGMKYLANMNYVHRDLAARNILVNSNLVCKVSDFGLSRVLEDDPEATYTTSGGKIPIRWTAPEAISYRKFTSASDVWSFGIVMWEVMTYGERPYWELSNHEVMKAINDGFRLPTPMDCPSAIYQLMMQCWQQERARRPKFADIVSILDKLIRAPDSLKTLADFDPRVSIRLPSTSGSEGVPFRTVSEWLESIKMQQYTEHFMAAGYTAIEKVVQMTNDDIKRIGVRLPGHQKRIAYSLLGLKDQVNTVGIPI

Sequence of EphA2-Fc (entire ectodomain of EphA2 fused to the Fc fragment of IgG) (P29317 24-537): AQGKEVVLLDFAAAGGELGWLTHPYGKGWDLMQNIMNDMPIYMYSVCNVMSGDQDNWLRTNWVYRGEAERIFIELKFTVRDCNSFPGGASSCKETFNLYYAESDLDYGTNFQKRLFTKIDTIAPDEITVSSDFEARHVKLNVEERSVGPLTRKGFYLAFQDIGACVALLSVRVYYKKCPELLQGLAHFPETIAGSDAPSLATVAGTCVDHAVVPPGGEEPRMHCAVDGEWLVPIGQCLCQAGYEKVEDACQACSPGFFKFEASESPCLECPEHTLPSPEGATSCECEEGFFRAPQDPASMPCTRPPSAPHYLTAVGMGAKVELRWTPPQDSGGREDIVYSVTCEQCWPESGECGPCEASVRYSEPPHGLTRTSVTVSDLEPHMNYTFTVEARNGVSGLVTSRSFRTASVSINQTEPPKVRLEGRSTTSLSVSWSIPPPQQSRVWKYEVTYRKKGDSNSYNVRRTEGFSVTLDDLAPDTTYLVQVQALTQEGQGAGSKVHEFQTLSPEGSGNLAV

Kd [1]: 17 nM
IC50 [2]: 400 nM
Substance: EphrinA1-Fc (from UniProt P20827 19-182) (Fc fusion)
